Measurements reported in US20240309109A1.

Molecular target: human CD38 Fc-fusion aa 45-300 (human) (UniProt P28907)
Assay: ELISA on CD38 Fc-fusion protein, IgG format

| Binder | ELISA CD38 Fc-Fusion protein (% Reactivity of MOR03087) [%] |
| --- | --- |
| MOR06189 IgG (antibody, part only; not given: Light chain, constant regions, V domains shown, part only) VH: QVQLVESGGGLVQPGGSLRLSCAASGFTFSSYYMNWVRQAPGKGLEWVSAINMIGNVTNYADSVKGRFTISRDNSKNTLYLQMNSLRAEDTAVYYCARDLPLVYTGFAYWGQGTLVTVSS | 126 |
| MOR06190 IgG (antibody, part only; not given: Light chain, constant regions, V domains shown, part only) VH: QVQLVESGGGLVQPGGSLRLSCAASGFTFSSYYMNWVRQAPGKGLEWVSYINPNGMMTNYADSVKGRFTISRDNSKNTLYLQMNSLRAEDTAVYYCARDLPLVYTGFAYWGQGTLVTVSS | 125 |
